For assay [1], the target named is transmembrane (TM) domain of the human nicotinic acetylcholine receptor α4 subunit (human). Nature of the assay: SEC-MALS. (Size exclusion chromatography separates by hydrodynamic size, large species first.)
Assay [2] deals with transmembrane (TM) domain of the human nicotinic acetylcholine receptor β2 subunit (human). Nature of the assay: SEC-MALS.

What is called stoichiometry N is a count of units in the complex or per binding partner.

On to “transmembrane (TM) domain of the human nicotinic acetylcholine receptor α4 subunit (domain or fragment)”, for which the stoichiometry N in assay [1] amounted to 5. In assay [2], “transmembrane (TM) domain of the human nicotinic acetylcholine receptor β2 subunit (domain or fragment)” yielded a stoichiometry N of 5.

(Values after paper PMC3319252.)
